B1: TRPM8-2 fragment (rat TRPM8 M353-T690) (other)
chain: MVKEKLVRFLPRTVSRLPEEEIESWIKWLKEILESPHLLTVIKMEEAGDEVVSSAISYALYKAFSTNEQDKDNWNGQLKLLLEWNQLDLASDEIFTNDRRWESADLQEVMFTALIKDRPKFVRLFLENGLNLQKFLTNEVLTELFSTHFSTLVYRNLQIAKNSYNDALLTFVWKLVANFRRSFWKEDRSSREDLDVELHDASLTTRHPLQALFIWAILQNKKELSKVIWEQTKGCTLAALGASKLLKTLAKVKNDINAAGESEELANEYETRAVELFTECYSSDEDLAEQLLVYSCEAWGGSNCLELAVEATDQHFIAQPGVQNFLSKQWYGEISRDT
modifications: 35S-methionine labelled
notes: In vitro translated from pAGA3; also called TRPM8-2/pAGA3; rTRPM8-2
B2: TRPM8-7 fragment (rat TRPM8 V145-S352) (other)
chain: VISVTGGAKNFALKPRMRKIFSRLIYIAQSKGAWILTGGTHYGLMKYIGEVVRDNTISRNSEENIVAIGIAAWGMVSNRDTLIRNCDDEGHFSAQYIMDDFMRDPLYILDNNHTHLLLVDNGCHGHPTVEAKLRNQLEKYISERTSQDSNYGGKIPIVCFAQGGGRETLKAINTSVKSKIPCVVVEGSGQIADVIASLVEVEDVLTSS
modifications: 35S-methionine labelled
notes: In vitro translated from pAGA3; The forward primer carries an NcoI site (start ATG before V145); also called TRPM8-7/pAGA3; rTRPM8-7
B3: TRPM8-8 fragment (rat TRPM8 M219-S352) (other)
chain: MVSNRDTLIRNCDDEGHFSAQYIMDDFMRDPLYILDNNHTHLLLVDNGCHGHPTVEAKLRNQLEKYISERTSQDSNYGGKIPIVCFAQGGGRETLKAINTSVKSKIPCVVVEGSGQIADVIASLVEVEDVLTSS
modifications: 35S-methionine labelled
notes: In vitro translated from pAGA3; also called TRPM8-8/pAGA3; rTRPM8-8
B4: TRPM8-9 fragment (rat TRPM8 A172-S352) (other)
chain: AQSKGAWILTGGTHYGLMKYIGEVVRDNTISRNSEENIVAIGIAAWGMVSNRDTLIRNCDDEGHFSAQYIMDDFMRDPLYILDNNHTHLLLVDNGCHGHPTVEAKLRNQLEKYISERTSQDSNYGGKIPIVCFAQGGGRETLKAINTSVKSKIPCVVVEGSGQIADVIASLVEVEDVLTSS
modifications: 35S-methionine labelled
notes: In vitro translated from pAGA3; The forward primer carries an NcoI site (start ATG before A172); also called TRPM8-9/pAGA3; rTRPM8-9
B5: TRPM8-10 fragment (rat TRPM8 D198-S352) (other)
chain: DNTISRNSEENIVAIGIAAWGMVSNRDTLIRNCDDEGHFSAQYIMDDFMRDPLYILDNNHTHLLLVDNGCHGHPTVEAKLRNQLEKYISERTSQDSNYGGKIPIVCFAQGGGRETLKAINTSVKSKIPCVVVEGSGQIADVIASLVEVEDVLTSS
modifications: 35S-methionine labelled
notes: In vitro translated from pAGA3; The forward primer carries an NcoI site (start ATG before D198); also called TRPM8-10/pAGA3; rTRPM8-10

Tests used:
GST-CaM fusion protein = GST-CaM fusion protein (Homo sapiens (Human), UniProt P0DP23 2-149); test: GST pull-down on agarose-GSH beads, 35S-labelled fragment, SDS/PAGE and autoradiography
GST = biological target: T1, GST (UniProt P08515 1-218 = GST); test: GST pull-down control (GST alone on beads), autoradiography, FIG. 2C
T1 construct: Negative control bait; also called glutathione S-transferase control
Method: Agarose-GSH beads (50% (vol./vol.)) bound with about 1 μg of GST or GST-CaM were incubated with 10 μl of ³⁵S-labelled TRPM8 fragment for 30 min at room temperature in a final volume of 200 μl of binding buffer. At the end of the incubation, the beads were washed three times with 1.0 ml of binding buffer and resuspended in 20 μl of 2× laemmli's sample loading buffer. Protein(s) bound to the beads, including the GST-CaM fusion protein, and possibly the ³⁵S-labelled TRPM8 fragment that interact with the GST-CaM fusion protein, were separated by SDS/PAGE followed by autoradiography.

T1 sequence (P08515 whole entry): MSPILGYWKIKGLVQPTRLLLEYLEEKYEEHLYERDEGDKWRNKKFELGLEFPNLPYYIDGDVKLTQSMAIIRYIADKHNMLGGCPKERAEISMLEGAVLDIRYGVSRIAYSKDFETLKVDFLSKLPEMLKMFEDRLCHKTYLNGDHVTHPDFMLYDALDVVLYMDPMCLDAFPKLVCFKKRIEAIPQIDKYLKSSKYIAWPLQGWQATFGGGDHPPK

Row | Binder | binding result (GST-CaM fusion protein) | binding result (GST)
1 | B1 | no binding | 
2 | B2 |  | no binding
3 | B3 | no binding | no binding
4 | B4 | no binding | no binding
5 | B5 | no binding | no binding

— US20070105155A1 (Janssen / Centocor, published 2007)
